The record followed here is patent US20240116985A1 (published 2024).

The EC50 is the concentration giving half of the maximal effect. As a reminder, the IC50 is the concentration at which inhibition is half-maximal. Higher therefore signals lower potency.

Starred links: 1 amine or outer side, 2 acyl side, 3 side chain; linkers in the order of their positions; H or OH if unused. Positions of bridges follow the written chain, without caps; N, C: chain ends. Non-standard residues stand in square brackets, D forms with d. Primed or numbered codes have the meaning given here. B5(6) = 2-amino-2-(pent-4-en-1-yl)hept-6-enoic acid (bis(4-pentenyl)glycine), stitching residue, C=CCCCC(CCCC=C)(N[*:1])C(=O)[*:2]; B5 = 2-amino-2-(pent-4-en-1-yl)hept-6-enoic acid, C=CCCCC(CCCC=C)(N[*:1])C(=O)[*:2]; Phe(3-OMe) = COc1cccc(C[C@H](N)C(=O)O)c1; Bta = N[C@@H](Cc1csc2ccccc12)C(=O)O; αAllylPro = C=CC[C@@]1(C(=O)O)CCCN1; S8 = C=CCCCCCC[C@](C)(N)C(=O)O

Assay [1] has as its target T1, full-length beta-Catenin (Uniprot ID P35222) (Homo sapiens (Human), UniProt P35222 1-781).
T1 construct: also called bCat; B-Catenin
T1 sequence: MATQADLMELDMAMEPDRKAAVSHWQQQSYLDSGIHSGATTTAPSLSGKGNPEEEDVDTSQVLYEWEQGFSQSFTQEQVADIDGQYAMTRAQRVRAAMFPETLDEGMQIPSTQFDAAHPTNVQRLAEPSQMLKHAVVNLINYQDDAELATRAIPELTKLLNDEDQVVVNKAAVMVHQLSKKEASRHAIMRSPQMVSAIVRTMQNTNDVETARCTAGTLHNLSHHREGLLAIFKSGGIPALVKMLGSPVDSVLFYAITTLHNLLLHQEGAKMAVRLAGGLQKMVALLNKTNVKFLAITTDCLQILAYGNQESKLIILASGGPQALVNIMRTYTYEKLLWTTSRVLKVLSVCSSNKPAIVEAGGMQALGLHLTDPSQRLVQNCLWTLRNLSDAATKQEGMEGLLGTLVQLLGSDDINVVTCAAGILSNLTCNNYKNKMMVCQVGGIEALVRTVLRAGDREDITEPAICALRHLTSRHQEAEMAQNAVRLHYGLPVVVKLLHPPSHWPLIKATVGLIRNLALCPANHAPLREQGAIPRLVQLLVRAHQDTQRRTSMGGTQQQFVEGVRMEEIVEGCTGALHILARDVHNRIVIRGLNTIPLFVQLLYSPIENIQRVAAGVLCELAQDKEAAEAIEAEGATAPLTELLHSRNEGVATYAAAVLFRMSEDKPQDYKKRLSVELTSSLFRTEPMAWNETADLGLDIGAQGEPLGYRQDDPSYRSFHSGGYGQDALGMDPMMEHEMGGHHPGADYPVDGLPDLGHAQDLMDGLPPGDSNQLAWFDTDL
Briefly: fluorescence polarization competition; full-length beta-catenin with 5FAM-labeled TCF4 residues 10-53 probe as competitor. The protocol: (§1) The plate was incubated protected from light for 60 minutes at 20° C. prior to read. Reads were performed on a CLARIOstar plate reader (BMG Labtech) in duplicate, and data were fitted to a 1:1 binding model with hill slope using an in-house script. All provided concentrations are final concentrations.
On the technique in general: In fluorescence polarisation assays a small probe gives low polarisation when free and higher when bound to something large.

In assay [2] the target is T2, beta-catenin in DLD1 TCF/LEF luciferase reporter cells (Homo sapiens (Human), UniProt P35222 1-781).
T2 sequence: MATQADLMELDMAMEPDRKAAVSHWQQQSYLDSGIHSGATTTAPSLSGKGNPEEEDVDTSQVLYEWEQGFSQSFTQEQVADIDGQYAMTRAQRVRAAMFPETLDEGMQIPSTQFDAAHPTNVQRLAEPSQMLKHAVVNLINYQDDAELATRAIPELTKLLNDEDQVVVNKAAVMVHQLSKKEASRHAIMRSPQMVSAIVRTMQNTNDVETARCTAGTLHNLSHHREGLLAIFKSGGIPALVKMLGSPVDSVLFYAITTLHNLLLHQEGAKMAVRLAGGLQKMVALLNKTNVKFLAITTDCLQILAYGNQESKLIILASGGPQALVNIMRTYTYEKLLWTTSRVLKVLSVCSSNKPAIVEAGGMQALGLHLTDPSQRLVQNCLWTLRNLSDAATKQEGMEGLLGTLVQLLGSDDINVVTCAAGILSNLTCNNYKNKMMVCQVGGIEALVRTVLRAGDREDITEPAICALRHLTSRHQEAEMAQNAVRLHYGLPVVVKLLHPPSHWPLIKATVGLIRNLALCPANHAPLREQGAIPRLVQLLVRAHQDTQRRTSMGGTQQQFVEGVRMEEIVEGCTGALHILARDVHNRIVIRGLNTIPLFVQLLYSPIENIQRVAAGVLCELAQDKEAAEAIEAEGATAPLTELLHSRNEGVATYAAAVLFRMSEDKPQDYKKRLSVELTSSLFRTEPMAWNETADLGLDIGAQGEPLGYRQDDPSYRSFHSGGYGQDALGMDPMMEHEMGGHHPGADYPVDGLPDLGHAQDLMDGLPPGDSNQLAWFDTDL
Briefly: cell-based or functional assay.

Assay [3] concerns the target T3, B-cat-Halo (beta-catenin HaloTag NanoBRET construct expressed in HEK293 cells) (UniProt P35222 1-781).
T3 construct: Transfected together with TCF4-Luc into HEK293 cells; not shown: HaloTag
T3 sequence (looked up): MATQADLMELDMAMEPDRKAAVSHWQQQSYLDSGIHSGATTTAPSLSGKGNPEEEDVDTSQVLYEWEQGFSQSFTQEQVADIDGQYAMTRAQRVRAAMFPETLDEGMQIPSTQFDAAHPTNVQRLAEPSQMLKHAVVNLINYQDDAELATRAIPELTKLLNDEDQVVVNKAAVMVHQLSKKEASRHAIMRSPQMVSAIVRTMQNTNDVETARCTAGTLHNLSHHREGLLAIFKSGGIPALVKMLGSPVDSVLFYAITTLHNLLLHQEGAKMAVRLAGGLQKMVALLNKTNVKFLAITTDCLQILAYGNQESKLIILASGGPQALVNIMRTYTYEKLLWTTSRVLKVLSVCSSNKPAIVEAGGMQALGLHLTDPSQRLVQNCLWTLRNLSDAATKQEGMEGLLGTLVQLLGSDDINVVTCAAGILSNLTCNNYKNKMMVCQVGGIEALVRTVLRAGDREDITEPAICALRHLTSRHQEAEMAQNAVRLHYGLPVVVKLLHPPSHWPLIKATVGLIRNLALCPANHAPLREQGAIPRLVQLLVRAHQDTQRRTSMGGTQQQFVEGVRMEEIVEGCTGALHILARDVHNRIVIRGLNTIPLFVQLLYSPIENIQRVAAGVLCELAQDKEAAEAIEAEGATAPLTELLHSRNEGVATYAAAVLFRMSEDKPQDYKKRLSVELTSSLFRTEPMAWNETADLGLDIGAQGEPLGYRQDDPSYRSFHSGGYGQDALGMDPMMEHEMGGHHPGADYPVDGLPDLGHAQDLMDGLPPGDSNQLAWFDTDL
Briefly: NanoBRET target engagement in HEK293 cells (B-cat-Halo / TCF4-Luc); absolute IC50; competitor TCF4-Luc. For orientation: BRET reads energy transfer from a luciferase to a nearby fluorophore.

Assay [4] has as its target T4, full-length beta-Catenin (Uniprot ID P35222) (Homo sapiens (Human), UniProt P35222 1-781).
T4 construct: also called bCat; B-Catenin
T4 sequence: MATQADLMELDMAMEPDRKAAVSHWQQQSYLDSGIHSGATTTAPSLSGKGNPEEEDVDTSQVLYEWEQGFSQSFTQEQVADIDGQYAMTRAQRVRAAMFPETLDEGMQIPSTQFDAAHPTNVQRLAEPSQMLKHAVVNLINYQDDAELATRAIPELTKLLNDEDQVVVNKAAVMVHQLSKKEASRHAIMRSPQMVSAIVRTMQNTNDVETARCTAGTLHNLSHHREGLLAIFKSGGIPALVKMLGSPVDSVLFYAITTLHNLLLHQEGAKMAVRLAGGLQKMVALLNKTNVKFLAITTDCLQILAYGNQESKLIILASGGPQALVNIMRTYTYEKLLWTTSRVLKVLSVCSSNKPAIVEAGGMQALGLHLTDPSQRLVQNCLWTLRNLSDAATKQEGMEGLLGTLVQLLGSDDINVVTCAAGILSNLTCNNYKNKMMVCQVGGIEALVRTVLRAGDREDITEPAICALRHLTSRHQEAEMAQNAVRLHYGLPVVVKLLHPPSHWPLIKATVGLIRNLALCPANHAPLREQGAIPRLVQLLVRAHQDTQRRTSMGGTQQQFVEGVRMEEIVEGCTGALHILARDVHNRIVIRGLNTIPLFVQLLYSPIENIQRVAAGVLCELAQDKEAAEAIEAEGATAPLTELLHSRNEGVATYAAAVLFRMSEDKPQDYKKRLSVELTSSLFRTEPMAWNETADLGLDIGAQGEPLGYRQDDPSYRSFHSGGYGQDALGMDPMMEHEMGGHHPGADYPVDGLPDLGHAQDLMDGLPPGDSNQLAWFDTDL
Briefly: fluorescence polarization competition; 10 nM full-length beta-catenin + 10 nM 5FAM-TCF4(10-53) probe. The protocol:
as §1

For assay [5], the target named is T3, B-cat-Halo (beta-catenin HaloTag …). Put plainly: NanoBRET target engagement in HEK293 cells (B-cat-Halo / TCF4-Luc); competitor TCF4-Luc.

B1: I-724 (peptide)
peptide: Ac-[αAllylPro]DI[B5]DEAA[Phe(3-OMe)]Q[S8]F[Bta]Q-NH2
modifications: staple 1-4, 4-11
notes: Stapled peptide composition
The molecule B1 came in with an EC50 in assay [1] of 0.114 µM.

B2: I-505 (peptide)
peptide: Ac-[αAllylPro]DL[B5(6)]DEAAFQ[S8]F[Bta]Q-NH2
modifications: staple 1-4, 4-11
notes: Stapled peptide composition; also called Ac-PL3-Asp-Leu-B5-Asp-Glu-Ala-Ala-Phe-Gln-S8-Phe-BztA-Gln-NH2
For the molecule B2, the “DLD1 reporter assay Abs IC50” value in assay [2] amounted to 10.8 µM. Moreover, in assay [3], the “NanoBRET Abs IC50” value was 4.9 µM. Besides, the EC50 in assay [4] worked out at 0.023 µM. Also, the IC50 in assay [5] came to 5.6 µM.
